T1: ARHGEF11, O15085
T1 sequence (O15085 42-136, limits assumed, looked up): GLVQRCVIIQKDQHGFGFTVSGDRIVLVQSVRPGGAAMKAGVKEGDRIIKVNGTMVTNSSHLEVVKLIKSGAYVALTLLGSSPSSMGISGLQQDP

T2: DFNB31_1, Q9P202
T2 sequence (Q9P202 135-233, limits assumed, looked up): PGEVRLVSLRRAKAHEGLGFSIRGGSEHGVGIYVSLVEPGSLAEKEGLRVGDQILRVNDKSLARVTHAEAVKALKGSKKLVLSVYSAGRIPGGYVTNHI

T3: GRIP1_7, Q9Y3R0
T3 sequence (Q9Y3R0 999-1096, limits assumed, looked up): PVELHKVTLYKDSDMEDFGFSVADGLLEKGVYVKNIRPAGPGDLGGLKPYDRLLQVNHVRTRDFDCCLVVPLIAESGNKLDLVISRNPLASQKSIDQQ

T4: HTRA4, P83105
T4 sequence (P83105 378-476, limits assumed, looked up): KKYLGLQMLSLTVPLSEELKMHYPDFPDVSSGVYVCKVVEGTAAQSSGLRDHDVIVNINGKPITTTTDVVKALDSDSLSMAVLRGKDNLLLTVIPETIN

T5: LIN7A, O14910
T5 sequence (O14910 103-200, limits assumed, looked up): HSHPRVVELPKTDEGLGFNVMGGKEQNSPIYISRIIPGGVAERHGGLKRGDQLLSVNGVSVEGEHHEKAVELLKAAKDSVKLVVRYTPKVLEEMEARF

T6: LNX2_2, Q8N448
T6 sequence (Q8N448 334-432, limits assumed, looked up): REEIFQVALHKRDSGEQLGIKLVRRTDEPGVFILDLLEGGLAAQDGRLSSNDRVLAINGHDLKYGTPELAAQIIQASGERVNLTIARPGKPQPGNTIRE

T7: MPDZ_10, O75970
T7 sequence (O75970 1624-1722, limits assumed, looked up): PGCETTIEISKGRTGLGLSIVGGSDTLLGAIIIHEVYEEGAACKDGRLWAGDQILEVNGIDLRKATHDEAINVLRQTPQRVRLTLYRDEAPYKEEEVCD

T8: MPP2, Q14168
T8 sequence (Q14168 180-250, limits assumed, looked up): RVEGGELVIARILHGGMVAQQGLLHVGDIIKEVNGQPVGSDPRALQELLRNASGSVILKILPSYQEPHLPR

T9: NHERF3_4, Q5T2W1
T9 sequence (Q5T2W1 373-468, limits assumed, looked up): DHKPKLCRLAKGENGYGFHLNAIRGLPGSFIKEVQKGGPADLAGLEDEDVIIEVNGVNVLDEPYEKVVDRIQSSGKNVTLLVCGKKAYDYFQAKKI

T10: PCLO, Q9Y6V0
T10 sequence (Q9Y6V0 4491-4600, limits assumed, looked up): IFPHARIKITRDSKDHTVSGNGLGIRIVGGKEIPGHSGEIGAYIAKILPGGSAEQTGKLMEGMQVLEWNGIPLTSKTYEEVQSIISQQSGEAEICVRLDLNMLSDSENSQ

T11: RADIL, Q96JH8
T11 sequence (Q96JH8 971-1071, limits assumed, looked up): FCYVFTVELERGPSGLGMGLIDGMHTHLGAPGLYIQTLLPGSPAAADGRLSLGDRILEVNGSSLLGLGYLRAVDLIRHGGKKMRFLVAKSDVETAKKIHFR

T12: TX1BP3, O14907
T12 sequence (O14907 10-122, limits assumed, looked up): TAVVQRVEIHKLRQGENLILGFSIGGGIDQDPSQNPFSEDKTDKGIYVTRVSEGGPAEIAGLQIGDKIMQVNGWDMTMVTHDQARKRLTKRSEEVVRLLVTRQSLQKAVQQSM


Legend:
Experiment in all cases: holdup assay
Parameters in all cases: key: below the threshold = too weak to quantify, mostly under pKd 3.1 to 4
Settings in all cases: plain residues with an end cap or a label only (N-terminal biotin on a linker: ado-ado)
ARHGEF11, O15085 = target: T1, ARHGEF11, O15085
DFNB31_1, Q9P202 = target: T2, DFNB31_1, Q9P202
FRMPD2_1, Q68DX3 = target: FRMPD2_1, Q68DX3
Chain of FRMPD2_1, Q68DX3 (Q68DX3 770-861): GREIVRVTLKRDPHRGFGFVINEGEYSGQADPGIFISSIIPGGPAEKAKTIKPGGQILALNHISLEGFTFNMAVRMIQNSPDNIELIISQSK

FRMPD2_2, Q68DX3 = target: FRMPD2_2, Q68DX3
Chain of FRMPD2_2, Q68DX3 (Q68DX3 944-1038): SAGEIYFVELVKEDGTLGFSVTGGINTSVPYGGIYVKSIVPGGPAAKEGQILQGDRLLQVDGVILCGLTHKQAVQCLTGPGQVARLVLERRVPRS

GOPC, Q9HD26 = target: GOPC, Q9HD26
GRIP1_7, Q9Y3R0 = target: T3, GRIP1_7, Q9Y3R0
HTRA4, P83105 = target: T4, HTRA4, P83105
IL16_3, Q14005 = target: IL16_3, Q14005
Chain of IL16_3, Q14005 (Q14005 1107-1207): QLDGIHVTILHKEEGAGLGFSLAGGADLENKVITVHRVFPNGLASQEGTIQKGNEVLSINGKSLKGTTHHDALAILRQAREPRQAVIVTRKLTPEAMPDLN

Inadl_10, Q8NI35 = target: Inadl_10, Q8NI35
Chain of Inadl_10, Q8NI35 (Q8NI35 1673-1763): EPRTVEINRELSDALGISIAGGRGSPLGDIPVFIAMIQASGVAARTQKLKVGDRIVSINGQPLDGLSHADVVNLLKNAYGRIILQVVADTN

Inadl_5, Q8NI35 = target: Inadl_5, Q8NI35
Chain of Inadl_5, Q8NI35 (Q8NI35 673-780): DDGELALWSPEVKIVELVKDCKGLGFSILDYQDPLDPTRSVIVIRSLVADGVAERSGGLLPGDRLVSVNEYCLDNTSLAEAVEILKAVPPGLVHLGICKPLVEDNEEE

Inadl_9, Q8NI35 = target: Inadl_9, Q8NI35
Chain of Inadl_9, Q8NI35 (Q8NI35 1530-1615): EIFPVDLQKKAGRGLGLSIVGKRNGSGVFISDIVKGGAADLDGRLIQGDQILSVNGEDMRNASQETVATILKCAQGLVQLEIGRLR

LIN7A, O14910 = target: T5, LIN7A, O14910
LNX1_3, Q8TBB1 = target: LNX1_3, Q8TBB1
Chain of LNX1_3, Q8TBB1 (Q8TBB1 500-596): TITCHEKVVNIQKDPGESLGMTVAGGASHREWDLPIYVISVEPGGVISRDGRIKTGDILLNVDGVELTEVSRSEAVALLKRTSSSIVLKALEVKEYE

LNX2_2, Q8N448 = target: T6, LNX2_2, Q8N448
MAGI1_1, Q96QZ7 = target: MAGI1_1, Q96QZ7
Chain of MAGI1_1, Q96QZ7 (Q96QZ7 1-106): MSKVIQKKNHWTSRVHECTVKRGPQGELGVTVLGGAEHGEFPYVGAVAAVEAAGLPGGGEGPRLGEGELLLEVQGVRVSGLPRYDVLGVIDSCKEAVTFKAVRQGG

MAGI1_2, Q96QZ7 = target: MAGI1_2, Q96QZ7
Chain of MAGI1_2, Q96QZ7 (Q96QZ7 456-580): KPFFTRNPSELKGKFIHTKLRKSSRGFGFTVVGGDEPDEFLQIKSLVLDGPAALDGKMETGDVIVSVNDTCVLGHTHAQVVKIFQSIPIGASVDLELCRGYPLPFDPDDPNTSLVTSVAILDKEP

MAGI3_2, Q5TCQ9 = target: MAGI3_2, Q5TCQ9
Chain of MAGI3_2, Q5TCQ9 (Q5TCQ9 398-503): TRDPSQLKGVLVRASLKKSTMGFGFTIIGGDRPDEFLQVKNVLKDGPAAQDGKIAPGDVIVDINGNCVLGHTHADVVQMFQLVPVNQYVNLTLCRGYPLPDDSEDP

MPDZ_10, O75970 = target: T7, MPDZ_10, O75970
MPP2, Q14168 = target: T8, MPP2, Q14168
NHERF3_4, Q5T2W1 = target: T9, NHERF3_4, Q5T2W1
PCLO, Q9Y6V0 = target: T10, PCLO, Q9Y6V0
RADIL, Q96JH8 = target: T11, RADIL, Q96JH8
TJP1_2, Q07157 = target: TJP1_2, Q07157
Chain of TJP1_2, Q07157 (Q07157 181-274): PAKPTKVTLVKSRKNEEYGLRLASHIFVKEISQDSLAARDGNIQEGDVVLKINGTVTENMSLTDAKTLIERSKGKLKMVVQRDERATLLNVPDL

TJP2_1, Q9UDY2 = target: TJP2_1, Q9UDY2
Chain of TJP2_1, Q9UDY2 (Q9UDY2 24-128): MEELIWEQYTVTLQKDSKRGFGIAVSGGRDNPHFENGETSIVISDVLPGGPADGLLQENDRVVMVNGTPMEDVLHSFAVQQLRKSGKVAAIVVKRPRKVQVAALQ

TX1BP3, O14907 = target: T12, TX1BP3, O14907

pKd (ARHGEF11, O15085) | pKd (DFNB31_1, Q9P202) | pKd (FRMPD2_1, Q68DX3) | pKd (FRMPD2_2, Q68DX3) | pKd (GOPC, Q9HD26) | pKd (GRIP1_7, Q9Y3R0) | pKd (HTRA4, P83105) | pKd (IL16_3, Q14005) | pKd (Inadl_10, Q8NI35) | pKd (Inadl_5, Q8NI35) | pKd (Inadl_9, Q8NI35) | pKd (LIN7A, O14910) | pKd (LNX1_3, Q8TBB1) | pKd (LNX2_2, Q8N448) | pKd (MAGI1_1, Q96QZ7) | pKd (MAGI1_2, Q96QZ7) | pKd (MAGI3_2, Q5TCQ9) | pKd (MPDZ_10, O75970) | pKd (MPP2, Q14168) | pKd (NHERF3_4, Q5T2W1) | Binder | further results
4.3 | below the threshold | 3.85 | below the threshold | below the threshold | 3.71 | 4.37 | below the threshold | below the threshold | 4.47 | 4.17 | below the threshold | below the threshold | 4.86 | 3.48 | below the threshold | 3.85 | below the threshold | below the threshold | below the threshold | YYKRPVQEWV [MMP24, Q9Y5R2] | pKd (PCLO, Q9Y6V0): below the threshold; pKd (RADIL, Q96JH8): 5.63; pKd (TJP1_2, Q07157): 4.1; pKd (TJP2_1, Q9UDY2): 6.12; pKd (TX1BP3, O14907): 3.87
3.7 | below the threshold | below the threshold | below the threshold | below the threshold | below the threshold | 3.8 | below the threshold | below the threshold | below the threshold | below the threshold | below the threshold | below the threshold | below the threshold | below the threshold | below the threshold | below the threshold | below the threshold | below the threshold | below the threshold | DTTVPESEDL [MYOZ2, Q9NPC6] | pKd (PCLO, Q9Y6V0): below the threshold; pKd (RADIL, Q96JH8): below the threshold; pKd (TJP1_2, Q07157): below the threshold; pKd (TJP2_1, Q9UDY2): below the threshold; pKd (TX1BP3, O14907): below the threshold
below the threshold | 3.6 | below the threshold | below the threshold | below the threshold | below the threshold | below the threshold | below the threshold | below the threshold | below the threshold | below the threshold | below the threshold | below the threshold | below the threshold | below the threshold | below the threshold | below the threshold | below the threshold | below the threshold | 5.45 | GNSVLKSTQF [SLC22A12, Q96S37] | pKd (PCLO, Q9Y6V0): below the threshold; pKd (RADIL, Q96JH8): below the threshold; pKd (TJP1_2, Q07157): below the threshold; pKd (TJP2_1, Q9UDY2): below the threshold; pKd (TX1BP3, O14907): below the threshold
3.83 | below the threshold | below the threshold | below the threshold | below the threshold | below the threshold | 3.94 | below the threshold | below the threshold | below the threshold | below the threshold | below the threshold | below the threshold | below the threshold | below the threshold | below the threshold | below the threshold | below the threshold | below the threshold | below the threshold | VRNLPESEEL [MYOZ3, Q8TDC0] | pKd (PCLO, Q9Y6V0): below the threshold; pKd (RADIL, Q96JH8): below the threshold; pKd (TJP1_2, Q07157): below the threshold; pKd (TJP2_1, Q9UDY2): below the threshold; pKd (TX1BP3, O14907): below the threshold
4.04 | 4.06 | below the threshold | 3.63 | 4.37 | below the threshold | 4.04 | below the threshold | below the threshold | below the threshold | below the threshold | below the threshold | below the threshold | 3.8 | below the threshold | 4.23 | 5.19 | 3.83 | below the threshold | 3.85 | LPHGHSTTRV [NLGN4X, Q8N0W4] | pKd (PCLO, Q9Y6V0): below the threshold; pKd (RADIL, Q96JH8): 3.7; pKd (TJP1_2, Q07157): below the threshold; pKd (TJP2_1, Q9UDY2): 4.04; pKd (TX1BP3, O14907): below the threshold
below the threshold | below the threshold | below the threshold | below the threshold | below the threshold | below the threshold | below the threshold | below the threshold | below the threshold | below the threshold | below the threshold | below the threshold | below the threshold | below the threshold | below the threshold | below the threshold | below the threshold | below the threshold | below the threshold | below the threshold | SKSNFGSEPL [KIF17, Q9P2E2] | pKd (PCLO, Q9Y6V0): below the threshold; pKd (RADIL, Q96JH8): below the threshold; pKd (TJP1_2, Q07157): below the threshold; pKd (TJP2_1, Q9UDY2): below the threshold; pKd (TX1BP3, O14907): 5.05
